B1: N-terminal FLAG tagged B3GNT2 (enzyme, human, UniProt Q9NY97 1-397, looked up)
chain: MSVGRRRIKLLGILMMANVFIYFIMEVSKSSSQEKNGKGEVIIPKEKFWKISTPPEAYWNREQEKLNRQYNPILSMLTNQTGEAGRLSNISHLNYCEPDLRVTSVVTGFNNLPDRFKDFLLYLRCRNYSLLIDQPDKCAKKPFLLLAIKSLTPHFARRQAIRESWGQESNAGNQTVVRVFLLGQTPPEDNHPDLSDMLKFESEKHQDILMWNYRDTFFNLSLKEVLFLRWVSTSCPDTEFVFKGDDDVFVNTHHILNYLNSLSKTKAKDLFIGDVIHNAGPHRDKKLKYYIPEVVYSGLYPPYAGGGGFLYSGHLALRLYHITDQVHLYPIDDVYTGMCLQKLGLVPEKHKGFRTFDIEEKNKNNICSYVDLMLVHSRKPQEMIDIWSQLQSAHLKC
notes: FLAG-tagged ORF overexpressed in cells; pulled down from lysate with mouse anti-FLAG; also called N-FLAG B3GNT2; N-term FLAG; not shown: N-terminal FLAG tag
B2: N-terminal FLAG tagged B3GNT2 (enzyme, human, UniProt Q9NY97 1-397, looked up)
chain: MSVGRRRIKLLGILMMANVFIYFIMEVSKSSSQEKNGKGEVIIPKEKFWKISTPPEAYWNREQEKLNRQYNPILSMLTNQTGEAGRLSNISHLNYCEPDLRVTSVVTGFNNLPDRFKDFLLYLRCRNYSLLIDQPDKCAKKPFLLLAIKSLTPHFARRQAIRESWGQESNAGNQTVVRVFLLGQTPPEDNHPDLSDMLKFESEKHQDILMWNYRDTFFNLSLKEVLFLRWVSTSCPDTEFVFKGDDDVFVNTHHILNYLNSLSKTKAKDLFIGDVIHNAGPHRDKKLKYYIPEVVYSGLYPPYAGGGGFLYSGHLALRLYHITDQVHLYPIDDVYTGMCLQKLGLVPEKHKGFRTFDIEEKNKNNICSYVDLMLVHSRKPQEMIDIWSQLQSAHLKC
notes: FLAG-tagged ORF overexpressed in A375 cells; pulled down from the lysate with mouse anti-FLAG; also called N-FLAG B3GNT2; N-term FLAG; not shown: N-terminal FLAG tag

Experiments:
Assay in all cases: co-IP with anti-FLAG, N-FLAG B3GNT2, mass spectrometry
[1] = target: T1, IMMT (human, UniProt Q16891-4 34-757, limits assumed)
T1 construct: also called NP_001093639.1 (+3)
T1 sequence (looked up): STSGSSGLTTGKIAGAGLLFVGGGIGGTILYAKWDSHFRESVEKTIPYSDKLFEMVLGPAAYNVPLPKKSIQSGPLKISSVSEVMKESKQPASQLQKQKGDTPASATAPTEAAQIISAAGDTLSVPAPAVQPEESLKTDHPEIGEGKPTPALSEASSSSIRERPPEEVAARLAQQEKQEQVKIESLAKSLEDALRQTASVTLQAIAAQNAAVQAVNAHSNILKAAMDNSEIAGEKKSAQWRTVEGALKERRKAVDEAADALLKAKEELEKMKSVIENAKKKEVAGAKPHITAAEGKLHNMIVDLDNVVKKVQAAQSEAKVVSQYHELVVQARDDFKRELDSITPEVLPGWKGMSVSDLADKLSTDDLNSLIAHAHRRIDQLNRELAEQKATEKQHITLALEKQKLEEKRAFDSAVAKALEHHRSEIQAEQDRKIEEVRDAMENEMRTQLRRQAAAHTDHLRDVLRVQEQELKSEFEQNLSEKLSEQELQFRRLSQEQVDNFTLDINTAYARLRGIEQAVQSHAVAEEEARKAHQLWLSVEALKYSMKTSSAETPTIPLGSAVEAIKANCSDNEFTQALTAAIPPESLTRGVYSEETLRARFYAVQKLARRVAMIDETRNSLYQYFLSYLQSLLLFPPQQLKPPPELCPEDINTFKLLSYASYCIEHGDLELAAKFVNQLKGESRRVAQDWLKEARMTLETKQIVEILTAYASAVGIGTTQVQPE

[2] = target: T2, GBF1 (human, UniProt Q92538 1-1860, limits assumed)
T2 construct: also called NP_001186307.1 (+13)
T2 sequence (Q92538 whole entry): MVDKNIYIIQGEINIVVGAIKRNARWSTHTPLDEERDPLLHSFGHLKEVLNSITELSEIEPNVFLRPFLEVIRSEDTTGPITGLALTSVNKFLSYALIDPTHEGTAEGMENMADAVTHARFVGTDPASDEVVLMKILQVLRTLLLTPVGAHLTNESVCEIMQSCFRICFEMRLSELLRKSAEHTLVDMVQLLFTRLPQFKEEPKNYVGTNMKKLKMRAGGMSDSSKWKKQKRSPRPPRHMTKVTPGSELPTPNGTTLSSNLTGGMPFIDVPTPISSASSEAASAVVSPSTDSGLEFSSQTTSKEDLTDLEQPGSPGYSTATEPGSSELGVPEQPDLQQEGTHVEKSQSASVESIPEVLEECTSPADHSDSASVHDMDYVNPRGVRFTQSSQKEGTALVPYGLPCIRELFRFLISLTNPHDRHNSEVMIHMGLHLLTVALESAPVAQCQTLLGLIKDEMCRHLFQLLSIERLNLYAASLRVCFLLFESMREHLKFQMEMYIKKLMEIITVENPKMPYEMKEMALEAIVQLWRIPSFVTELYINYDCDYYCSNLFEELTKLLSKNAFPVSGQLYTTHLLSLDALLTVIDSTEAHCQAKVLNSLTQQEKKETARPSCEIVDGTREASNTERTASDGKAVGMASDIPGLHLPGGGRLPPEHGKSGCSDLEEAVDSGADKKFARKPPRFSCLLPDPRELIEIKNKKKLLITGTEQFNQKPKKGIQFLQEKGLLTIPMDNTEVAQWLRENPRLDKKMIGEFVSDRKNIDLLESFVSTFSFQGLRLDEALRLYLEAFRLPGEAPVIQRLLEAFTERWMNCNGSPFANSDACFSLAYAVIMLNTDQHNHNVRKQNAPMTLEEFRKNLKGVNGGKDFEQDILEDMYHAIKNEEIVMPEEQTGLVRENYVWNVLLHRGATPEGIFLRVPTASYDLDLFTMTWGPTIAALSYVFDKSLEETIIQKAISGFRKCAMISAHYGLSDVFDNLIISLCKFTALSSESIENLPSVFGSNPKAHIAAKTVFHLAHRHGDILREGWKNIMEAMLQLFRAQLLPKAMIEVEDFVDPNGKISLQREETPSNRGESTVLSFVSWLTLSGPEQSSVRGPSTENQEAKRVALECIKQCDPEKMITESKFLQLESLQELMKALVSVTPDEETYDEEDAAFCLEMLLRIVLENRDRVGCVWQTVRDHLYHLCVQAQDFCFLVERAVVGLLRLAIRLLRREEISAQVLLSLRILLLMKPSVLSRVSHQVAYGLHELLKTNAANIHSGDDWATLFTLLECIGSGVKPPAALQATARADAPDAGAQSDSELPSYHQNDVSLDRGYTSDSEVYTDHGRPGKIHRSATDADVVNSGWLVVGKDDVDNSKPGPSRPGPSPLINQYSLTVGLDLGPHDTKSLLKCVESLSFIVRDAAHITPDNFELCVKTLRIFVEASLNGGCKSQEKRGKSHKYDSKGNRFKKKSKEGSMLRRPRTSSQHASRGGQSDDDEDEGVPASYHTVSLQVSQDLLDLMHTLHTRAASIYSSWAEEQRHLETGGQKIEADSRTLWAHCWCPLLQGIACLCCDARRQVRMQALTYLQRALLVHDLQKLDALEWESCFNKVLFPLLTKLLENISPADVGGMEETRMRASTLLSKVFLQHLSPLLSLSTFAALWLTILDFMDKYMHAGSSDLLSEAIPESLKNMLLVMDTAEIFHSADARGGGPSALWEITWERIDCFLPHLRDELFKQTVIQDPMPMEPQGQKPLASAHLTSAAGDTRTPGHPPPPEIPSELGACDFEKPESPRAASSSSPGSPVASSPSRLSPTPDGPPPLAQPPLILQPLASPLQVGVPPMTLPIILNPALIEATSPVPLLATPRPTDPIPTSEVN

[3] = target: T3, SYNCRIP (human, UniProt O60506-3 2-562, limits assumed)
T3 construct: also called NP_001153148.1 (+1)
T3 sequence (looked up): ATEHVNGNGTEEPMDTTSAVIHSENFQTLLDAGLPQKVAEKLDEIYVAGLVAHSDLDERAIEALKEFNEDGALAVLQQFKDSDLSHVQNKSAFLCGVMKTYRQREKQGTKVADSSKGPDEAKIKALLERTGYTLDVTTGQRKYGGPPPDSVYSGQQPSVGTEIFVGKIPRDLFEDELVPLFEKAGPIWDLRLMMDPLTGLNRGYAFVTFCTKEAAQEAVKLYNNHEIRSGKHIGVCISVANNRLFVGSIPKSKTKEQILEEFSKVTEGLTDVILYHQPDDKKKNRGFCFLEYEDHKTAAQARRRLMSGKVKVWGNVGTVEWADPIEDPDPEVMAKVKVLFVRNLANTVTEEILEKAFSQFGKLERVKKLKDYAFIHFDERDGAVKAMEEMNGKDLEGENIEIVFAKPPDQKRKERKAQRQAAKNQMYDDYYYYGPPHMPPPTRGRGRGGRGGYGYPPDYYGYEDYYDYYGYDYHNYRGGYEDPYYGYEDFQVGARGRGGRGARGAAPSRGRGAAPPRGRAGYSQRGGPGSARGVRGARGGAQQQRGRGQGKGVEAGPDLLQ

[4] = target: T4, PUF60 (human, UniProt Q9UHX1 1-559, limits assumed)
T4 construct: also called NP_016868724.1
T4 sequence (looked up): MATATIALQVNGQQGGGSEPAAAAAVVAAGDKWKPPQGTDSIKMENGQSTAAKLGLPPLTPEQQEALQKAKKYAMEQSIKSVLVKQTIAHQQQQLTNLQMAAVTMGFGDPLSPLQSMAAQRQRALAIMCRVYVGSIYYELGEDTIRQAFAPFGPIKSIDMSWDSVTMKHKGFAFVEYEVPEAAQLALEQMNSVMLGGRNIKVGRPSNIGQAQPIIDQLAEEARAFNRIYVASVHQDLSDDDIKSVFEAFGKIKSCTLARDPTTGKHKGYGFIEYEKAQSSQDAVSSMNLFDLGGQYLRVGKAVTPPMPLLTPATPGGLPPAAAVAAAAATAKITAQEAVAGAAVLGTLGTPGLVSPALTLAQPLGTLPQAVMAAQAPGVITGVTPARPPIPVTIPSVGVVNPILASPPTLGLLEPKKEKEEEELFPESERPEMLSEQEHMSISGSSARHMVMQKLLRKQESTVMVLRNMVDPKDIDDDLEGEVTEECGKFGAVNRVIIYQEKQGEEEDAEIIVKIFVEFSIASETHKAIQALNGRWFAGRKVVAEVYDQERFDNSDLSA

| Binder | co-IP mass spectrometry count [1] | co-IP mass spectrometry count [2] | co-IP mass spectrometry count [3] | co-IP/MS count, N-term FLAG [4] |
| --- | --- | --- | --- | --- |
| B1 | 23 | 0 | 2 | – |
| B2 | – | – | – | 6 |
